{"source": "the DeepSol protein solubility set"}
{"assay": "soluble on expression in E. coli; label from the status in PepcDB or PDB records"}
{"sequence": "GPGSMEGISEEQRQREEAEIRERDRKRQQEKEDYERRLAEAKAEEERKRREEEQLRLEEEKRKKRQEEEWKRLGSDAIQDLPPVPPPVAEEGALDMWYLDDETSQPPLSTASLKPGRKVGAPVITMKALRELGVVLFRVSMSDFSVVRQIIKEREYKHTDEVKISQTAKDDSFLERWYQEHYTEDEQFRVVMDGSFFLDIRSKQDEWIRVHVKAGDLVVLPAGIYHRATLDEDDYVALYRGFQDAPRFVPVKRSDSRADSNRVRLAYLMSLKKGDVATQNGFL", "soluble on expression in E. coli": "soluble"}
{"sequence": "GPGSMELNQLELFVASTEHTRSDAWRYLRRLRVLDCKIEEGFDRLHEIAVQLSGTDSDGNLVDNQGNGTLQPDRKKRGRPPLCKNAFTATPYNVGQSPDSSVLLVDPAVANLHEEFRKHSRSVKRYALEREQIAEELVASGKELTEYLEARMREFRATFSISD", "soluble on expression in E. coli": "soluble"}
{"sequence": "GPGSMEREQLISSASQPRRTVQSPARWADSSLNEIPETPPESGGAGGKLCGRMSDCIRALQVSIQPIITVVSSGNGSRRNNGGGPTVTEPLVAGRMGEREASSPGRNSFNPPRTRSGRESQPQGTISAVSGPEQHSAEKAPASPITVAGEQRMSASRPASGLASVPATGAEGLAVDHLAPGSGGVPEASTNDIIRAVENDRGMLHTTEQLSAVLERLAEYLPIRVEVELDERGPGGDTSSNCFLHHLCLQILGPVRTTPHSALLGLLEDILLEDCVPTSLRISSIHFADVSFSVEPAPGMQSTEEANNVVSFDALPIFGFTTTRVASGDVAENEKVKKECTERFCAFAKNMLECYSHTTSVRLTRCCFTPSDLGRWLKLPLLQLRRLYFEKCPLTAAHLDALIRLARATSRQSGRGPAFQRLEELQLSGSLTEESVAAVLSYFSDELLDGEFALVSLRLPSLWLRVAQSHPILERQPSLIVTST", "soluble on expression in E. coli": "not soluble"}
{"sequence": "GPGSMFQRSLWRFFAHLVREVDTAGFAGDFRRLHHVGAASTQTQAREARHAACNVLFCGHHGTGKLNLLKAIGLQCEKKGQRVAFVSADNQRAARLDGYLINFFIGMRVSRDELPSQEQLEGTLERHVRLVESTFASSFPSLRNIDVLILDALELVQPTVLLSMDAVARRLRGQPRTPFGGLRVYAAADFWRLPVHPTSDTGGYLFQLEQWEVLFPLQTLLRKSHVQKEEELRRLTELAFYGALTLPQMKELEKLSMKEKPESRLFSWSSSTMEAEKSTATATEGEDEEGEIEEEDAMSIAQWTSFPGESAAADLPDGPEGALEATKDDEGAVNDPAAGQTSLSSSSSALALLNDDMASNSFVATRMMLRFPRQPAVKEMPLRYRQLKRTEMGNFLVNMLVHSSSATSVGLVDSLSVDVGSRVHLLLDGQEHYGVPGGAVGEVMQVGPHFLSIHFPREHRTVDIPRMRVVCYHPFYPEIRYELQQFPVFPRKRICPMNILTYPHAFFVNLNGRRMADTNDLGNLLAHQRSFADFTTRNTSDFANLDGMVHEPTRIYYHKISGKPISTAREQWCRNCKQFVPTDSFFEHWATCVHSVRWCIDCNQTVSLELLGPHREKHQVVLCLDCGRPVEWRHWEGHRLSCGPMMREVSTDNQFIPLRTRQLALEMGLDKRDLHTVASITKSSLPKPREGVL", "soluble on expression in E. coli": "not soluble"}
{"sequence": "GPGSMHKDGPRLWDDTLVEAERIATDSKARYLQLPTPDREAEMQRTRSQFFLLLRERVRNTYLRRISKFNPGEPLTWKYISGRKKASLPSPTSMLLGDGQHTYKTARRAANALNRIFLPFHPSHKAVRFSKGINRQSASLNINASFLFGQQNNNESAATSTSGSSLPSSSESQDKNEAATTSGLVAHLHSPLDAPFNRTELLAALRNTPYGKAPGPDEVYSEALRHISSKGLRFLLRCINHSWTTGTIPVEWRRATIVPLLKPGKSPELLESYRPISLTSIVSKVAEKMVLKRLLWVWTPHPHQYAYRSMRTTTMQLAHLIHDVEHNRNHYFQVSLPKKSGIGNQLHYRPHRTLLVLVDFSKAFDSIDHRVLSRLLANIPGVNCRRWLRNFLCGRYAKTRVGHRHSDRRPMLRGVPQGSVL", "soluble on expression in E. coli": "not soluble"}
{"sequence": "GPGSMIYVSERPMARTFVVFDKDGKPAERPDEYFPLVQMDKEEFVNRRRGHVADENLFAVDGDLILSHLIMGTQIMYDAEKNAVHSCDTGESEADGSIPISVRVLSDEFVVRHESQPDCLAWGSEAPSVYAG", "soluble on expression in E. coli": "not soluble"}
{"sequence": "GPGSMKPSFYAVAVGKARGIYSTWAQCSEQVTGYPGCIYKGFRTLDEARSFLAAHPLPSTGSAVSLGGGSSSSVAAPYPSSSEHAALGSNYFKGRLKRETREDLLAGEESVAERQARRRRADHAQIAVAPPELSSMSASLSAATPSTTASKPLATTTTTSSPGAFEVVYVDGACSHNGTSQARAGYGGYYGSMSDPRNFSCPVPLTESQTNNRGEVRAVIHAIVQAFVDAGAPADALEATHLVDPSAWRLVDLTRPLPHLIIYTDSRYVIDGLTRYAKKWVQNGFVLSTNEPVQNQDLWRQLIRLRDRYNTLYARQQHDQQRACQWGDGHHSEADLAQLVRYTCQNARNDKSEGVELIHVRGHSKVHGNEMADSLAVMGSRLHRS", "soluble on expression in E. coli": "soluble"}
{"sequence": "GPGSMKVSSFIVQLRPGFFRLMIHAKPGARSTALAAQPQALDEALEVRLAAPPVDGKANTELVEFMQTLLEQQLATLRITQKQHLRKSGCEDGEDEVYTYEHYAKKKKSKNNKRMNEDSKSGEAKVEYPDDKVRVSLVSGLTSRNKVLEVTFPGTEEDLLAVLKSADFS", "soluble on expression in E. coli": "soluble"}
{"sequence": "GPGSMLANYDYESDLRGRTDELGRAQHVDAYDKHPTFLESPYAGQEDLLRDAPQSYMDGPPPGYGGHDAYEHVDMNGGGYDLPLQPQAQTQAVDTRRLSKDRLARGGLNIFSWNTDAPTLNHPREVRERDCAELQRLRPVDSAAQRDKEVREKFEGNTQSRFLCFSESDSPGKRRGVRVFNPNNKNGNLNSGTGHENPIQNRFNEEPQPFKIRQQQPRPLPQQNLPPAGRATHSNRQESGGIPGFAGMGEGRQHNARRGRGSYRG", "soluble on expression in E. coli": "not soluble"}
{"sequence": "GPGSMLATFFGRRAEPEFKVVCDPESIVFPVDFDAPDYPYEQAFEEADAYVRKLPTRGVVPVSDVLRLQFYSLFKQATEGDINEDVKQPSMLRDWEGYWKVYGWRKCRGMTRERARDLYTDLLDLQIRKHCSFVWGAPSGEDRWAAFYDGVRIIRNLPKGGYYLPDSLRAHFYALYKQALVGNLSDFQKTPAAFSEKYKWLRSRPSKAGFDQMRYDEWAALKGMSCEKAKRMYCKDIFKSAAMCGYVWAPPGTADHLKVIGDQTSAKTLKKRTDADEHAERIAGATHLTMEEAMDAVGVHLSMVERLTMHSFTKKEQTAAARTAEEAAGRKKREEKAEVKRRGVAGSHVDLNKGMAFARPKAEESTEATVTEKTEETEAKEDAERRLEAQGTDKDPQSVCNLCGSFAKDIASDAEAPEKVKESGAAAAAAKDCTAASTSPAPVPKLQASAKVAEASKILPSKSEPVLKKEPAVKGTSKGAKSSHQAKNGAKKGPAGKRTKAN", "soluble on expression in E. coli": "soluble"}
{"sequence": "GPGSMLGWSGTRFAAALHLRSVCSPRSAAAQGSHARAPRALSSSSSFVALFGSARGFSGTARRFSGTFHYRKVRLTPEDALDPLTKPTNIDKAALHVVSVPIGNLKDFSLRALDVLRGVDYIITTDRPATKTLLDLVNIPNQGRLIHYSRGNRSTSREKLVELLKGGRSMALVTTSGTPCIGDVGGELVQELQKSGIRVTAVPGASALMSALAISGLTTSAYESAKNDKRGADAAADGEAGLSPQTFEDGSFFFGNVLPKSHGARLRILRTIVAPATFPCVFYEVPYRLVMVLQDIASVLPHRFVYVTHELTKLNESLHADTAERLVGFYLRQEAQMLVKKGQLVLVIAGAGPKETAAWLEKEAAKRRRLRRTVSDLMKDAPPAASSHLESAPGTGGTTAAASSSRESSVTTAKEERRQRRKQRAELRRLRQRKKRERLIRAIESEQERLRVILSINRNDASRLM", "soluble on expression in E. coli": "not soluble"}
{"sequence": "GPGSMLHFPITPPPIEIEYLDNDPLEFAVRTEARKWRFDDMGYMRELAFVRINNNPTVGDFRNMSPDERRNLFWGSDRQDFFRHLTCTLTGSPEHLYHRGW", "soluble on expression in E. coli": "not soluble"}
{"sequence": "GPGSMLRATILARGTLVKIGRGPNNVTESASNALLESLQDHGYCYIQHPFIQKTILDQLHRDCRIFFEQYVLHLHDAAAQGSLKRNNLHNYNCTQLSPYELESIKSPSGFRGYYRYVGASGIDDAIECFSVGRDDVADPAVLRRDYYKQAGWEESEYLSMISRRNPWDILLNHVNSIPASGSGIVPGMDRNDNFMSDFKDMMMAYYDLCYTVSMDVMRHISCGLGIRPSIPQGGSDPTMDFELEYFTSFHQKRDCDLQAKYYPQLGAGARLKNGVDIQNQRSAHNPDGVKVLRRKGAKTQPLVRTASTEDGDGEKDVTVRLDTHKDLSTITLLSQDSLGGLEVWDEEKASYMAVPVLEDALLVNAGLFLEKWTGGLIEATPHRVRNAKGGSSRCSIVFFALPDHDARIEPLLQQEDNPAVDAQDSFLAGDMMPAP", "soluble on expression in E. coli": "not soluble"}
